± gives the standard deviation of the averaged measurements.
B1: library; numbered along this chain (parent)
chain: MNIQIGELAKRTACPVVTIRFYEQEGLLPPPGRSRGNFRLYGEEHVERLQFIRHCRSLDMPLSDVRTLLSYRKRPDQDCGEVNMLLDEHIRQVESRIGALLELKHHLVELREACSGARPAQSCGILQGLSDCVCDTRGTTAHPSD

How the values were obtained:
[1] = variants of: B1; experiment: sfGFP reporter fluorescence (15 h) (µM FITC); higher = higher leak; details: library round: Round 0; ligand: none
Outline: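 PCR-made linear PbrR templates (Echo-normalized to 5 nM) were expressed in BL21 Star (DE3) extract (PANOx-SP) with pPbrR-sfGFP reporter plasmid and 30 μg/mL GamS. Reactions were 1 μL, Echo-assembled, with 1 µM lead chloride, 30 µM zinc acetate or no metal, incubated 15 hr at 30 °C. Endpoint sfGFP fluorescence (485/528 nm, Synergy Neo2) was converted to µM FITC via standard curves in 50 mM sodium borate pH 8.5. Up to three biological replicates.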

[2] = variants of: B1; experiment: sfGFP reporter fluorescence (15 h) (µM FITC); higher = stronger transcriptional activation; details: library round: Round 0
Protocol: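 Cell-free (BL21 Star DE3 extract, PANOx-SP) biosensing: 1 µL Echo-assembled reactions with linear PbrR variant templates (5 nM) and pPbrR-sfGFP reporter, with 1 µM Pb (lead chloride), 30 µM Zn (zinc acetate) or no ligand; endpoint sfGFP fluorescence after 15 h at 30 °C, calibrated as µM FITC. Round 0 library (alanine scan, site saturation, combinatorial) of PbrR from Cupriavidus metallidurans; 2 biological replicates.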

| Variant | sfGFP reporter fluorescence [1] | sfGFP reporter fluorescence ([2]; ligand: 1 µM Pb) | sfGFP reporter fluorescence ([2]; ligand: 30 µM Zn) |
| --- | --- | --- | --- |
| MNIQIGELAKRTACPVVTIRFYEQEGLLPPPGRSRGNFRLYGEEHVERLQFIRHLRSLDMPLSDVRTLLSYRKRPDQDCGEVNMLLDEHIRQVESRIGALLELKHHLVELREACSGARPAQSCGILQGLSDCVCDTRGTTAHPSD | 0.0608 ± 0.001 | 0.0702 ± 0.0013 | 0.173 ± 0.0091 |
| MNIQIGELAKRTACPVVTIRFYEQEGLLPPPGRSRGNFRLYGEEHVERLQFIRHRRSLDMPLSDVRTLLSYRKRPDQDCGEVNMLLDEHIRQVESRIGALLELKHHLVELREACSGARPAQSCGILQGLSDCVCDTRGTTAHPSD | 0.0596 ± 0.0018 | 0.0592 ± 0.0013 | 0.0572 |
| MNIQIGELAKRTACPVVTIRFYEQEGLLPPPGRSRGNFRLYGEEHVERLQFIRHMRSLDMPLSDVRTLLSYRKRPDQDCGEVNMLLDEHIRQVESRIGALLELKHHLVELREACSGARPAQSCGILQGLSDCVCDTRGTTAHPSD | 0.0645 ± 0.0015 | 0.0733 ± 0.0026 | 0.139 ± 0.018 |
| MNIQIGELAKRTACPVVTIRFYEQEGLLPPPGRSRGNFRLYGEEHVERLQFIRHNRSLDMPLSDVRTLLSYRKRPDQDCGEVNMLLDEHIRQVESRIGALLELKHHLVELREACSGARPAQSCGILQGLSDCVCDTRGTTAHPSD | 0.0594 ± 0.0015 | 0.0583 ± 0.0015 | 0.057 ± 0.0034 |
| MNIQIGELAKRTACPVVTIRFYEQEGLLPPPGRSRGNFRLYGEEHVERLQFIRHSRSLDMPLSDVRTLLSYRKRPDQDCGEVNMLLDEHIRQVESRIGALLELKHHLVELREACSGARPAQSCGILQGLSDCVCDTRGTTAHPSD | 0.06029 ± 0.00026 | 0.066 ± 0.001 | 0.203 ± 0.019 |
| MNIQIGELAKRTACPVVTIRFYEQEGLLPPPGRSRGNFRLYGEEHVERLQFIRHPRSLDMPLSDVRTLLSYRKRPDQDCGEVNMLLDEHIRQVESRIGALLELKHHLVELREACSGARPAQSCGILQGLSDCVCDTRGTTAHPSD | 0.0596 ± 0.00078 | 0.0597 | 0.05846 ± 0.00026 |
| MNIQIGELAKRTACPVVTIRFYEQEGLLPPPGRSRGNFRLYGEEHVERLQFIRHQRSLDMPLSDVRTLLSYRKRPDQDCGEVNMLLDEHIRQVESRIGALLELKHHLVELREACSGARPAQSCGILQGLSDCVCDTRGTTAHPSD | 0.0594 ± 0.001 | 0.0588 ± 0.0013 | 0.0585 ± 0.00078 |
